Measured values published in patent publication US20100330158A1, “PROTEIN-ASSISTED DRUG DELIVERY SYSTEM FOR THE TARGETED ADMINISTRATION OF ACTIVE AGENTS” (InnoPharma, LLC, priority 2009, published 2010).

B1: SfaS: Recombinant His-tagged S fimbriae protein sfaS variant from E. coli CFT073, SEQ ID NO: 2 (protein)
chain: MASMTGGQQMGRGSMVDTTITVTGRVLPRTCTIGNGGNPNATVVLDNAYTSDLIAANSTSQWKNFSLTLTNCQNVNNVTATFGGTAENTNYYRNTGDATNIMVELQEQGNGNTPLKVGSTKVVTVSNGQATFNLKVRAVSKGNAGAGSINSQITVTYTYALEHHHHHH
modifications: His tag; E. coli
B2: SfaA: Recombinant His-tagged S fimbriae protein sfaA variant from E. coli CFT073, SEQ ID NO: 4 (protein)
chain: MKYLLPTAAAGLLLLAAQPAMAMDIGINGTGSMGTVHFKGEVVNAACAVNTNSFDQTVNLGQVRSERLKVDGAKSNPVGFTIELNDCDSQVSAGAGIVFSGPAVTGKTDVLALQSSAAGSATNVGVQTDHTGKVVPLDGTASSTFTLTDGTNKIPFQAVYYATGQATAGIANADATFKVQYQLEHHHHHH
modifications: His tag; E. coli

Test system: bovine brain microvascular endothelial cells (BBMVECs)
Experiment: Flow cytometry binding of FITC-labeled proteins to BBMVECs
Conditions: for shift in fluorescence: FITC-labeled protein incubated with BBMVECs at 4° C. (on ice) for 15 minutes; for % of the cells that bind (strongly) to the protein: BBMVECs, 15 minutes
Description: The three E. coli recombinant proteins (SfaS, SfaA, OmpA) produced in Example 1 are labeled with fluorescein isothiocyanate (FITC) to allow fluorescent detection of proteins. The proteins are labeled using the Thermo-Fisher Pierce FITC labeling kit (Thermo Fisher Scientific Inc., Waltham, Mass.) according to the manufacturer's protocol. The amounts of protein used for the labeling reaction are 0.75 mg (SfaS), 0.8 mg (OmpA) and 1.25 mg (SfaA).
Flow cytometry is performed by incubating the labeled proteins with BBMVECs. These cells are procured from Cell Applications, Inc (San Diego, Calif.). Cells are mixed with FITC proteins (individually) and incubated on ice or at 37° C. for 15 minutes, then washed, and sorted with flow cytometry.

| Molecule | shift in fluorescence | % of the cells that bind (strongly) to the protein (4° C. (on ice)) | % of the cells that bind (strongly) to the protein (37° C.) |
| --- | --- | --- | --- |
| B1 | less significant shift |  |  |
| B2 | significant shift | ~37% | ~10% |
